Results reported in patent publication US20180163216, “GENE EXPRESSION IN BACTEROIDES” (Massachusetts Institute of Technology, published 2018).

Legend:
[1] = system: T1, Int12 serine integrase; experiment: cell_activity; conditions: flipping in <1 day in mouse gut with rhamnose; also inversion by PCR in vitro culture
T1 sequence: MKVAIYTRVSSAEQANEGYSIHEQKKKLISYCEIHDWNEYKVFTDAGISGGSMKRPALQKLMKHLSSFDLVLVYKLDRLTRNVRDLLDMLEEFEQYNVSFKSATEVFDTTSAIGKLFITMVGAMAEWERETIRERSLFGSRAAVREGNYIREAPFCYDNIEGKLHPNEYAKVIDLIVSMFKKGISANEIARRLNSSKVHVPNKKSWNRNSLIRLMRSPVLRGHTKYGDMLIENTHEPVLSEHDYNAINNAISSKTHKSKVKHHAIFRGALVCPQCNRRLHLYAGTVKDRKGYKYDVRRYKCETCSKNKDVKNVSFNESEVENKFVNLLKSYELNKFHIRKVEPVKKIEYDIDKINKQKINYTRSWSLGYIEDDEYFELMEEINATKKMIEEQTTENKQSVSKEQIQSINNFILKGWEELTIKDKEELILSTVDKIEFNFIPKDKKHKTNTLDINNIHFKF

[2] = system: RhaR (AraC/XylS-family activator) (Bacteroides thetaiotaomicron); experiment: cell_activity; conditions: printed 104-fold (10^4); rhamnose-induced NanoLuc; K=0.3 mM rhamnose, n=1.4
[3] = target: T2, LacIQ repressor (Escherichia coli, UniProt P03023 SEQ:5-363); experiment: cell_activity; fold induction by IPTG; K=6 uM IPTG; conditions: expressed from PBT1311 in B. thetaiotaomicron; chain copies: 4
Excerpt: (§1) Next, an IPTG-inducible system was developed. Pairs of LacO1 operator sites were inserted in the strong PcfxA promoter in three locations: upstream of the −33 element (O1), between the −33 and −7 elements (O2) or just downstream of the transcription start site (O3) (FIGS. 7A-7B).

[4] = target: T2, LacIQ repressor; experiment: cell_activity; fold induction by IPTG; K=86 uM IPTG; conditions: expressed from PBT1311 in B. thetaiotaomicron; chain copies: 4
Excerpt: as §1

T2 sequence (P03023 2-360): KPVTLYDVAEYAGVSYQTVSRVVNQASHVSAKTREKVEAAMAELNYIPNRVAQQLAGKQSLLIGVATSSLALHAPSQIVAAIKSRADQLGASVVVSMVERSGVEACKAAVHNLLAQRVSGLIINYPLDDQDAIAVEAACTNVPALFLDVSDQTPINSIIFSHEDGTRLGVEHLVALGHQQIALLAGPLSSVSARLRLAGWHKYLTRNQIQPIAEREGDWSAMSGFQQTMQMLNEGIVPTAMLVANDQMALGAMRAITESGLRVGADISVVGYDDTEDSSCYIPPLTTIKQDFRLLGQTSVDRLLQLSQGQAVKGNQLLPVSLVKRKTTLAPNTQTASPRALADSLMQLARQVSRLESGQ

Int12 attB/attP in memory array
activity [1]: > 90%

TATTTCGGAGAAAACATGCATAAATCATGCTTTTTTTGCATAAAAAGTAAAATTTATACTGATGTAAGGTTTGGCTATGCAGATTTGTGTCAAAATGCACATCCTTTCTATCAAAATGCGTAAGGAAAAGGAGGAAGGAACCGCCTATCTTTGCAATGTAGGTAAATGGATACCTTAAATATATAGACAAAATACC (double strand) [PBT3763]
activity [2]: 10000 fold

B1: PLacO23 (dsDNA)
DNA 1: TTACAAAGAAAATTCGACAAACTGTTATTTTTCTATCTATTTATTTGAATTGTGAGCGGATAACAATTACCTTTGTCGGCAATTGTGAGCGGATAACAATTAAATAAAGATATTCTCGTCAAACAAATATAAATAATATAAAC
DNA 2: GTTTATATTATTTATATTTGTTTGACGAGAATATCTTTATTTAATTGTTATCCGCTCACAATTGCCGACAAAGGTAATTGTTATCCGCTCACAATTCAAATAAATAGATAGAAAAATAACAGTTTGTCGAATTTTCTTTGTAA
activity [3]: 22 fold

B2: PLacO13 (dsDNA)
DNA 1: TTACAAAGAAAATTCGACAAACTGTTATTTTTCTATCTATTTAAATTGTGAGCGGATAACAATTTGGGTGGGAAACTTTAGTTATGTACCTTTGTCGGCAATTGTGAGCGGATAACAATTAAATAAAGATATTCTCGTCAAACAAATATAAATAATATAAAC
DNA 2: GTTTATATTATTTATATTTGTTTGACGAGAATATCTTTATTTAATTGTTATCCGCTCACAATTGCCGACAAAGGTACATAACTAAAGTTTCCCACCCAAATTGTTATCCGCTCACAATTTAAATAGATAGAAAAATAACAGTTTGTCGAATTTTCTTTGTAA
activity [4]: 8 fold
